Here are results for seven molecules from patent US20260043816A1 (AC IMMUNE, published 2026).

Square brackets hold non-standard residues; d marks the D form. Ends that are not written are not given here. * marks the point of attachment. Biotin = O=C1N[C@H]2[C@H](CS[C@H]2CCCCC(=O)*)N1; pS = N[C@@H](COP(=O)(O)O)C(=O)O

Assay [1] concerns the target T1, biotinylated TDP-43 phospho peptide 370-384 (pS375 and pS379) (human).
T1 peptide: Biotin-GNNSY[pS]GSN[pS]GAAIG
The assay is described as follows: capture ELISA, antibody on anti-mouse IgG, biotinylated peptide. On the procedure: (§1) Briefly, for capture detection in ELISA, wells of 96-well plates were coated with 5 μg/mL goat anti-mouse IgG (Fc gamma fragment specific), in carbonate buffer, overnight at 4° C. Plates were then washed with 0.05% Tween-20/PBS and blocked with 1% bovine serum albumin (BSA) in 0.05% Tween-20/PBS for 1 hour at 37° C. Phospho TDP-43 antibodies were then added at 5 μg/mL and incubated for 2 hours at 37° C. after which the plates were washed as described above. Biotinylated peptides representing each of the phospho sites, or non-phosphorylated, were incubated at 0.5 mM in 0.1% BSA and PBS for 1 hour at 37° C. after which the plates were washed. A streptavidin-HRP-conjugate (R&D Systems, Minnesota, United States) was added at 1/200 dilution in 0.05% Tween-20/1% BSA in PBS for 45 minutes in the dark at ambient temperature. After the final wash, plates were incubated with TMB (Sigma-Aldrich, Switzerland), an HRP substrate solution, and read at 405 nm using an ELISA plate reader (Tecan, Switzerland).

Assay [2] addresses T2, biotinylated TDP-43 phospho peptide 370-384 (pS375) (human).
T2 peptide: Biotin-GNNSY[pS]GSNSGAAIG
The description is as above. On the procedure: as §1

Assay [3] addresses T3, biotinylated TDP-43 phospho peptide 370-384 (pS379) (human).
T3 peptide: Biotin-GNNSYSGSN[pS]GAAIG
Described as above. On the procedure:
as §1

For assay [4], the target named is T4, biotinylated non-phosphorylated TDP-43 peptide 366-414 (human, biotin on the N-terminus).
T4 peptide: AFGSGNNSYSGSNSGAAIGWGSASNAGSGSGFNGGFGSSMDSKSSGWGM
The assay is described as above. The method, then:
as §1

For assay [5], the target named is T5, Peptide 29 (human, phosphoserine at pS409 and pS410 (human TDP-43 numbering, in the SEQ ID NO: 9 part); Trioxatridecan-succinamic acid (Ttds) linker between SEQ ID NO: 7 and SEQ ID NO: 9).
T5 peptide: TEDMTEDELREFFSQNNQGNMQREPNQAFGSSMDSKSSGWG
The assay can be described thus: pairing sandwich ELISA, antibody coated as capture, target titrated. The method, then:
(§2) The capacity of antibodies to bind phospho TDP-43 and TDP-43 was determined using a sandwich enzyme-linked immunosorbent assay (ELISA), where each antibody was paired with a second TDP-43 antibody previously characterized for TDP-43 binding and performance in sandwich immunoassays, ACI-7071-809F12-Ab1-rec2 (as described in WO2020234473) or ACI-7069-636E5-Ab1 (as described in WO2020234473). ELISA plates (Nunc™ Edge™ 96-Well, Non-Treated, Flat-Bottom Microplate, ThermoFisher Scientific, Denmark) were coated with 5 μg/mL of anti-phospho TDP-43 or anti-TDP-43 antibodies in carbo/bicarbonate buffer, overnight at 4° C. Plates were then washed with 0.05% Tween-20/PBS and blocked with 1% bovine serum albumin (BSA) in 0.05% Tween-20/PBS for 1 hour at 37° C. The plates were then washed again as described above.
(§3) Serial-dilutions of target peptide or protein were then added to the plates. For assays with anti-phospho TDP-43 antibodies, one of four peptide conjugates (peptides 11, 23, 28, or 29) each composed of two TDP-43 sequences, one phosphorylated and one non-phosphorylated, conjugated together with a Trioxatridecan-succinamic acid linker (Ttds, binding regions and sequences shown in Table 4) were used. Peptides 11, 23, 28, and 29 were added in a 10-fold serial dilution starting at 0.5 μM. […] The plate was read at 450 nm using an ELISA plate reader (Tecan, Switzerland).
(ELISA stands for enzyme-linked immunosorbent assay.)

In assay [6] the target is T5, Peptide 29. The assay is described as follows: pairing sandwich ELISA, biotinylated antibody as detector, target titrated. On the procedure: as §2, §3
Assay [7] has as its target T5, Peptide 29. The assay is described as follows: SPR Biacore 8K, antibody captured, peptide analyte, single-cycle kinetics, 1:1 fit. The method, then:
(§4) Each cycle started with the non-covalent capture of the antibody which were diluted in running buffer to a final concentration of 5 μg/mL and injected for 120 sec with a flow rate of 10 μL/min. Antibodies being measured were captured in channels […], leaving Fc 1 as a blank Fc. Capture levels were evaluated following a 120 sec stabilization period after each antibody injection. ACI-7071-809F12-Ab1-rec2 was used as control, binding to the non-phosphorylated sequences represented in peptides 28 and 29.
(§5) Injections of peptides 28 or 29 were performed using single-cycle kinetics with increasing concentrations ranging from 1.2 to 100 nM prepared as a 3-fold serial dilution. Injections were performed with contact times of 300 sec/injection at a flow rate of 30 μL/min. A dissociation phase of 900 sec followed the final injection. Sensor surface was regenerated by two injection of 10 mM Glycine-HCl pH 1.7 at a flow rate of 10 μL/min for 60 sec, followed by a stabilization period of 120 sec. Results obtained from single-cycle kinetics were double-referenced using the blank Fc 1 and buffer cycles and evaluated by Biacore 8K evaluation software (Cytiva). The following kinetic parameters were obtained using the 1:1 binding fit model with variable Reflective Index (RI): association rate constant (ka), dissociation rate constant (kd), affinity constant (KD) and saturation response (Rmax).
A general note: In SPR one partner is held on a chip, and binding of the other changes the refractive index at the surface.

For assay [8], the target named is T5, Peptide 29. The assay is described as follows: SPR Biacore 8K, antibody from purified hybridoma supernatant captured, peptide analyte, 1:1 fit. On the procedure:
as §4, §5

Assay [9] deals with T6, biotinylated TDP-43 phospho peptide 401-413 (pS409 and pS410) (human).
T6 peptide: Biotin-FGSSMDSK[pS][pS]GWG
The assay is described as follows: capture ELISA, antibody on anti-mouse IgG, biotinylated peptide. The method, then:
as §1

The target of assay [10] is T7, biotinylated TDP-43 phospho peptide 401-413 (pS409) (human).
T7 peptide: Biotin-FGSSMDSK[pS]SGWG
The assay is described as above. On the procedure: as §1

Assay [11] deals with T8, biotinylated TDP-43 phospho peptide 401-413 (pS410) (human).
T8 peptide: Biotin-FGSSMDSKS[pS]GWG
Described as above. On the procedure:
as §1

B1: ACI-8071-943.7H9-Ab1 (antibody, V domains shown)
VH: EIQLQQSGTVMARPGASVKMSCKTSGYIFTNYWMHWVKQRPGQGLDWIGTIYPGNSDTDYNQNFKGKAKLTAVTSASTAYMELSSLTNEDSAVYFCIRGGWGGFPYWGQGTLVTVSA
VL: DVVMTQIPLSLPVSLGDQASISCRSSQRLVHSNGNTYLHWYLQKPGQSPKFLIHKVSNRFSGVPDRFSGSGSGTDFTLKIRRVEAEDLGVYFCCQSTHVPYTFGGGTKLEIK
notes: also called 943.7H9H8; pS403/pS404 TDP-43 antibody
In the case of B1, the binding result in assay [1], in [2], in assay [3] and in assay [4] was “no binding (tested: peptide at 0.5 mM)” throughout.

B2: ACI-8072-946.8H6-Ab1 (antibody, V domains shown)
VH: EEHLVESGGGLVKPGGSLKLSCAASGFTFSDYGMQWVRQAPEKGLEWVAYISSGSSTIYYEDTVKGRFTISRDNAKNTLFLQMTSLRSEDTAMYYCVRPYDNYGQGTLVTVSA
VL: DVLMTQTPLSLPVSLGDQASISCRSSQSIVHSNGNTYLEWYLQKPGQSPKLLIYKVSNRFSGVPDRFSGSGSGTDFTLKISRVEAEDVGVYYCFQGSHVPRTFGGGTKLEIK
notes: also called 946.8H6D10; pS409/pS410 TDP-43 antibody
As for B2, a half-maximal response in assay [5] (EC50) required 0.111 nM. In assay [6], this molecule had an EC50 of 1.12 nM. In [7], this molecule registered a dissociation constant Kd of 3.28 nM, a koff of 0.00469 s⁻¹ and a kon of 1.43e+06 M⁻¹ s⁻¹.

B3: ACI-8072-946.9D6-Ab1 (antibody, V domains shown)
VH: EEHLVESGGGLVKPGGSLKLSCAASGFTFSDYGMQWVRQAPEKGLEWVAYISSGSSTIYYEDTVKGRFTISRDNAKNTLFLQMTSLRSEDTAMYYCVRPYDNYGQGTLVTVSA
VL: DIVLTQSPASLAVSLGQRATISCRASKSVSTSGYSYMHWYQQKPGQPPKLLIYLASNLESGVPARFSGSGSGTDFTLNIHPVEEEDAATYYCQHSRELPWTFGGGTKLEIK
notes: Data marked * were generated with hybridoma / purified hybridoma supernatant; also called 946.9D6F3
In [8], B3 displayed a Kd of 2.29 nM, a koff of 0.000707 s⁻¹ and a kon of 309000 M⁻¹ s⁻¹.

B4: ACI-8072-946.4G5-Ab1 (antibody, V domains shown)
VH: EVQLVESGGGLVKPGGSLKLSCAASGFTFSDYGMHWVRQAPEKGLEWVAYISSGSSTIYYADTVKGRFTMSRDNAKNTLFLQMTSLRSEDTAMYYCSRPYGNYGQGTLVTVSA
VL: DVLMTQTPLSLPVSLGDQASISCRSSQSIVHSNGNTYLEWYLQKPGQSPKLLIYKVSNRFSGVPDRFSGSGSGTDFTLKISRVEAEDLGVYYCFQGSHVPRTFGGGTKLEIK
notes: also called 946.4G5F1; pS409/pS410 TDP-43 antibody
As for B4, the EC50 in assay [5] is 0.196 nM. In assay [6], this molecule showed an EC50 of 1.96 nM. In assay [7], this molecule registered a Kd of 1.68 nM, a koff of 0.000817 s⁻¹ and a kon of 487000 M⁻¹ s⁻¹.

B5: ACI-8071-943.12A8-Ab1 (antibody, V domains shown)
VH: EVQLVESGGGLVHPKGSLQLSCAASGFTFNTYTMHWVRQAPGKGLEWVARIRSKRSNYATYYADSVKDRFTISRDDSQSMLYLQMNNLKTEDTAIYYCVRGTGSYWGQGTSVTVSS
VL: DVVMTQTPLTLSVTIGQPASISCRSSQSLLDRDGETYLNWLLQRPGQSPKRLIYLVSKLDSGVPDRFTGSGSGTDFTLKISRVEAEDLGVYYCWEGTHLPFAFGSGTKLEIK
notes: also called 943.12A8B4; pS403/pS404 TDP-43 antibody
Consider B5, for which the binding result in assay [1], in [2], in assay [3], in assay [9], in assay [10] and in assay [11] was “no binding (tested: peptide at 0.5 mM)” throughout. In addition, the binding result in assay [4] was “no binding (tested: peptide at 0.5 mM)”.

B6: ACI-8071-943.7D3-Ab1 (antibody, V domains shown)
VH: QVQLQQPGTELVKPGASVKLSCKASGYTFTRYWMHWMKQRPGQGLEWIGNINPSDGGTNYNEKFKNKASLTVDKSSSTAYMQLSRLTSEDSAVYYCARRGSGYWGQGTTLTVSS
VL: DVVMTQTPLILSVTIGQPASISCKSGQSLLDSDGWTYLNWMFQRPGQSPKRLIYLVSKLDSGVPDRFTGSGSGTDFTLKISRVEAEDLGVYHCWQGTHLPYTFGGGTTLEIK
notes: also called 943.7D3E2; pS403/pS404 TDP-43 antibody
For the molecule B6, the binding result in [1], in assay [2], in assay [3] and in assay [4] was “no binding (tested: peptide at 0.5 mM)” each time.

B7: ACI-8071-943.2E6-Ab1 (antibody, V domains shown)
VH: QVQLQQPGTELVKPGASVKLSCKASGYTFTSYWMHWVKQRPGQGLEWIGNINPINSDTNYNEKFKTKATLTVDKSSSTAYMQLSSLTSEDSAVYYCARRGSGYWGQGTTLTVSS
VL: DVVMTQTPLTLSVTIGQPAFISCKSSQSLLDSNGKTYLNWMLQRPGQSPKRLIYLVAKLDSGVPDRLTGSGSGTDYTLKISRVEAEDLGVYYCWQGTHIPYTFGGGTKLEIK
notes: also called 943.2E6E10; pS403/pS404 TDP-43 antibody
On to B7, for which the binding result in assay [1], in assay [2], in assay [3], in [9], in [10] and in [11] was “no binding (tested: peptide at 0.5 mM)” each time. In assay [4], the binding result is “no binding (tested: peptide at 0.5 mM)”.

As a reminder, the EC50 is the concentration giving half of the maximal effect. Usually Kd stands for a measure of binding affinity in units of concentration. A lower Kd goes with higher affinity. The term koff denotes the first-order rate constant of dissociation. Low values mean slow dissociation, high ones fast dissociation. As usually defined, the kon is the rate constant with which the complex forms.
